Data taken from the supplement of paper PMC9732359.
± gives the uncertainty stated by the source.

Assay: protein stability index of a GFP-peptide fusion (yeast GPS) (PSI 1-4); higher = more stable; sorted into four equal gates, so the index is relative within each strain
In short: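 Mid-log yeast cultures in leucine-free medium, carrying a pooled plasmid library, were sorted into four equal gates by their GFP/Cherry fluorescence ratio. Each plasmid expressed Cherry along with GFP fused upstream of a tiled 17-residue yeast protein peptide. Plasmids recovered from each gate were PCR-amplified and Illumina-sequenced, with reads assigned to strains by barcodes. The protein stability index was obtained by summing each gate's read frequency weighted by its gate number.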

Sequence | protein stability index (doa10∆) | protein stability index (pdr5∆) | protein stability index (san1∆) | protein stability index (ubr1∆)
DSIPLRITNSFYSTNSQ [RPN9] | 2.56 ± 0.14 | 2.65 ± 0.13 | 2.58 ± 0.18 | 2.9 ± 0.21
DSKDGTTLNIKVEKRVL [SMB1] |  | 3.66 ± 0.22 |  | 3.45 ± 0.27
DSKMIQDLSRNTLGKGQ [SNU114] | 3.25 ± 0.098 | 3.34 ± 0.11 | 3.34 ± 0.12 | 3.61 ± 0.14
DSLENNEGVPSPMLSIS [FAS1] | 3.08 ± 0.077 | 2.56 ± 0.062 | 2.4 ± 0.1 | 3.29 ± 0.094
DSLIFKDSSLNYSSESY [YJL039C/NUP192] | 3.43 ± 0.089 | 3.25 ± 0.1 | 2.71 ± 0.21 | 3.17 ± 0.14
DSLNEWIKFDQELYNEL [RPN7] | 3.18 ± 0.11 | 3.17 ± 0.19 | 3.17 ± 0.074 | 3.19 ± 0.073
DSLNQLEIRNKICSSEM [RGR1] | 2.24 ± 0.22 | 3.11 ± 0.11 | 2.65 ± 0.14 | 2.61 ± 0.22
DSMLFVFGFRANKMRQD [SMC4] | 2.27 ± 0.072 | 2.24 ± 0.08 | 2.08 ± 0.12 | 2.7 ± 0.057
DSVLLNRGNKKRHRSSY [YML031W/NDC1] | 3.03 ± 0.099 | 3.25 ± 0.1 | 3.04 ± 0.06 | 3.15 ± 0.076
DSYIALYEKDIVPSMTH [RET1] | 2.5 ± 0.066 | 2.51 ± 0.07 | 2.46 ± 0.075 | 2.65 ± 0.067
DTKLKAHELQSEDVSRD [YIL149C/MLP2] | 2.77 ± 0.058 | 2.95 ± 0.055 | 3.03 ± 0.048 | 2.86 ± 0.047
DTLCGIRKLTLRDTFIE [RPO21] | 2.91 ± 0.085 | 1.58 ± 0.058 | 1.26 ± 0.1 | 1.46 ± 0.056
DTLKENATEVQKESDAK [ITC1] | 2.87 ± 0.11 | 2.94 ± 0.12 | 2.85 ± 0.086 | 3.16 ± 0.26
DTSRPDLEWQELTSFSS [DSN1] | 3.18 ± 0.053 | 3.05 ± 0.053 | 3.08 ± 0.055 | 2.85 ± 0.042
DTSTQAYEEEEENEDND [NUT1] | 3.24 ± 0.13 | 3.5 ± 0.17 | 3.54 ± 0.18 | 3.39 ± 0.12
DTVAELQAQLDYLNAEL [FAS2] | 2.81 ± 0.092 | 3.08 ± 0.081 | 3.12 ± 0.049 | 2.96 ± 0.09
DVAAKCKEVGITAVHVK [RPS14A] | 2.56 ± 0.057 | 2.81 ± 0.065 | 2.72 ± 0.062 | 2.62 ± 0.041
DVAFLKTAYSIYLSQNE [RPN1] | 2.25 ± 0.052 | 2.51 ± 0.056 | 2.16 ± 0.062 | 2.64 ± 0.058
DVEIGRMPIMLRSNKCI [RET1] | 1.23 ± 0.15 | 1.27 ± 0.11 | 1.14 ± 0.27 | 1.07 ± 0.11
DVHNGYILRYLHANGAS [COB] | 2.83 ± 0.096 | 2.37 ± 0.093 | 1.93 ± 0.11 | 2.5 ± 0.079
DVKCWSKFIEKFQDIVS [MED1] | 1.83 ± 0.12 | 2.62 ± 0.12 | 2.09 ± 0.14 | 1.89 ± 0.1
DVKSSDSLKLNSKPVEL [YJL041W/NSP1] | 3.27 ± 0.098 | 3.09 ± 0.12 | 3.1 ± 0.14 | 3.23 ± 0.12
DVNEKIRFRIEREVFVD [RPC25] | 1.81 ± 0.074 | 1.29 ± 0.066 | 1.56 ± 0.13 | 1.2 ± 0.044
DVNSASKSESDSQIVTP [RRP4] | 3.17 ± 0.088 | 3.28 ± 0.073 | 3.06 ± 0.099 | 2.78 ± 0.1

Sequence | protein stability index (doa10∆) | protein stability index (pdr5∆) | protein stability index (san1∆) | protein stability index (ubr1∆)
DVSIEELLREWLETYSE [IRR1] | 3.38 ± 0.056 | 3.34 ± 0.075 | 3.56 ± 0.067 | 3.33 ± 0.047
DVTALLEQGFKVVSAKE [YCS4] | 2.48 ± 0.12 | 1.68 ± 0.077 | 2.9 ± 0.098 | 3.37 ± 0.16
DVVERLHKNFESENFKI [RGR1] | 3.74 ± 0.18 | 3.4 ± 0.3 | 3.23 ± 0.18 | 3.81 ± 0.18
DVVMKATEPQMVLFNIY [PRP8] | 2.03 ± 0.046 | 1.76 ± 0.049 | 1.58 ± 0.078 | 1.77 ± 0.043
DVYTLPSYVHFKVQIIE [YML103C/NUP188] | 1.61 ± 0.055 | 1.71 ± 0.05 | 1.43 ± 0.069 | 1.66 ± 0.033
DWIRFVSIRQNQYKLVF [RPL22B] | 1.37 ± 0.076 | 1.48 ± 0.041 | 1.26 ± 0.1 | 1.26 ± 0.055
DYFFYFLVLYDVKTAEE [NUT1] | 1.52 ± 0.043 | 1.46 ± 0.044 | 1.62 ± 0.094 | 1.76 ± 0.04
DYISGISVGLYDTTPLL [SKI6] | 2.42 ± 0.12 | 2.28 ± 0.1 | 1.84 ± 0.084 | 2.26 ± 0.13
DYPDDSGWTPFHIACSV [NAS6] | 3.37 ± 0.11 | 2.28 ± 0.099 | 2.48 ± 0.12 | 2.27 ± 0.29
DYRVLVDKSRKVAHTSY [PRE8] | 2.81 ± 0.12 | 2.48 ± 0.13 | 2.3 ± 0.13 | 2.08 ± 0.095
EAAAKEKDELDNIEVSK [QCR7] | 3.18 ± 0.098 | 3.41 ± 0.079 | 3.29 ± 0.084 | 3.22 ± 0.055
EAEFSLRELSCCINAAF [RRP46] | 2.63 ± 0.053 | 2.83 ± 0.064 | 2.76 ± 0.047 | 2.97 ± 0.056
EAFGNIKIDAKPALFER [MCD1] | 2.11 ± 0.083 | 2.89 ± 0.15 | 1.84 ± 0.21 | 2.58 ± 0.078
EAGEVKDDGAFVKFLSK [RPL10] | 3.28 ± 0.087 | 3.22 ± 0.078 | 3.35 ± 0.07 | 3.61 ± 0.065
EAGVTDVKVSISHDDLQ [FAS2] | 2.77 ± 0.049 | 2.72 ± 0.038 | 2.74 ± 0.061 | 2.85 ± 0.047
EALFQSRPDILSKIKFP [YCG1] | 2.75 ± 0.067 | 2.62 ± 0.057 | 2.82 ± 0.067 | 3.13 ± 0.058
EALSEKPTREPTPSVKT [RPC53] | 3.11 ± 0.099 | 3.07 ± 0.085 | 3.2 ± 0.063 | 3.25 ± 0.089
EANGATSFDRTKKTITP [RPL3] | 3.12 ± 0.15 | 2.91 ± 0.15 | 2.74 ± 0.12 | 3.17 ± 0.27
EAPFLTSGTSSEQFNVW [GAL11] | 2.56 ± 0.091 | 3.27 ± 0.072 | 3.02 ± 0.062 | 3.21 ± 0.13
EAQIKDWVENELEALKL [FAS2] | 1.96 ± 0.14 | 1.25 ± 0.091 |  | 2.01 ± 0.1
EATQDDDFDMLFGENDT [NUT1] | 2.92 ± 0.071 | 3.13 ± 0.06 | 3.06 ± 0.065 | 3.04 ± 0.062
ECATCHGNLASCHGHFG [RPO31] | 2.9 ± 0.072 | 3.17 ± 0.12 | 2.92 ± 0.067 | 3.04 ± 0.056
ECKGCDNKIDIYQIHIP [RPB2] | 3 ± 0.044 | 2.87 ± 0.048 | 3.02 ± 0.035 | 2.54 ± 0.032
ECPGHFGHIDLAKPVFH [RPO21] | 2.69 ± 0.064 | 2.88 ± 0.06 | 2.74 ± 0.048 | 2.92 ± 0.052
